The values below come from the supplement of paper PMC12042874.

± gives the uncertainty stated by the source.

This series is described as follows: amyloid nucleation score (Sup35N fusion, yeast selection) (log enrichment); library NNK3; higher = more nucleation; inactive = no reads after selection. The procedure, abridged: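 For the nucleation score, DiMSum gave the log enrichment of output over input reads, centred on the mode score of non-aggregating sequences. Psi-negative yeast expressing Sup35N fused to peptides of 20 random codons were induced with 100 μM copper sulfate for 24 hours and grown 7 days at 30°C on medium lacking adenine and uracil. Input and output plasmid inserts were Illumina-sequenced, and sequences with under 100 input reads were excluded.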
IERCVFAFCYCSLGQSAKSF came in with an amyloid nucleation score of 1.49 ± 0.14.

In the case of IERSDSVSWRGVLVGIEMKV, the amyloid nucleation score result was “inactive”.

IESKLDAYTLCVGSSNWLWM: the amyloid nucleation score entry was “inactive”.

As for IEVQFENFSCSR, the amyloid nucleation score entry is “inactive”.

For the substance IEYRKITKLIKLGISGVERS, the amyloid nucleation score was -0.978 ± 1.3.

Turning to IFFAMISCTYLLDCVDRNWG, the amyloid nucleation score result was “inactive”.

For IFIYGPLPPVRCYHYDWWNL, the amyloid nucleation score entry is “inactive”.

As for IFLFSSRCALDNIVEPWFFW, the amyloid nucleation score result was “inactive”.

Turning to IFMITDQ, the amyloid nucleation score entry is “inactive”.

Turning to IFNALCYTWESRFLRTEVVS, the amyloid nucleation score entry was “inactive”.

IFNGRDNLQLDVWLGGYFLV: the amyloid nucleation score entry was “inactive”.

Take IFQKIECLTGMGIVGCSTSM: the amyloid nucleation score entry was “inactive”.

With IFSNRGFQLCWFSYMLSVHT, the amyloid nucleation score entry is “inactive”.

For the substance IFWHQRRLMTCCNKYTFGYG, the amyloid nucleation score result is “inactive”.

With IGFAD, the amyloid nucleation score result was “inactive”.

For IGGVAGQRGSIA, the amyloid nucleation score entry was “inactive”.

Substance IGKFPDRCTFVQTKYFYVRS registered an amyloid nucleation score of 1.48 ± 0.075.

Take IGKRIFKLCVMYGYYLHLNF: the amyloid nucleation score entry was “inactive”.

IGKVLDAFGE: the amyloid nucleation score entry is “inactive”.

Turning to IGMTRGMGLVVFYSRYMWDD, the amyloid nucleation score result is “inactive”.

With IGRISMAIMWIGVGVA, the amyloid nucleation score entry was “inactive”.

As to IGSAISGNYYTINNCDFDTS, the amyloid nucleation score entry is “inactive”.

For the substance IGSAVIWVFFCNGSGVGDGT, the amyloid nucleation score came to 2.08 ± 0.09.

Take IGSYIKEGCAITMSRPLFKG: the amyloid nucleation score result was “inactive”.

On to IGTTEQ, for which the amyloid nucleation score result is “inactive”.

As to IGWGVQFELFGTWRVEIPLV, the amyloid nucleation score result is “inactive”.

The substance IGWKEVSA had an amyloid nucleation score of -0.006 ± 0.35.

For the substance IGYGGSIPRHSTCDVSLQRW, the amyloid nucleation score entry was “inactive”.

For the substance IHIFTLKYKVRARKLATTIS, the amyloid nucleation score entry was “inactive”.

Take IHKLHYIYGGLMSTWLLEDT: the amyloid nucleation score entry was “inactive”.

IHMPHLGIGSKKRVSVRGDA: the amyloid nucleation score entry was “inactive”.

Take IHWGRAGATEAAST: the amyloid nucleation score result was “inactive”.

Take IICIYKIPKFTTRKLILRVY: the amyloid nucleation score entry was “inactive”.

IIIRGSSVLVVRLNDEGYVL had an amyloid nucleation score of 0.216 ± 0.63.

IIKDLPVCVDERASYAEVMS: the amyloid nucleation score result was “inactive”.

Take IILFKCWCKWEASGSATIVD: the amyloid nucleation score result was “inactive”.

With IIMRDYTAMCI, the amyloid nucleation score result is “inactive”.

With IIMSQMVYIVRDIHFVCWVI, the amyloid nucleation score entry was “inactive”.

For the substance IIPRIALPVCFVPYGLRRSS, the amyloid nucleation score result was “inactive”.

Take IIRALARFLVNVGV: the amyloid nucleation score result is “inactive”.

Consider IISDQEFSYETCDFSYFCKG, for which the amyloid nucleation score result was “inactive”.

Consider IISQAQFSVAYLLCWRQCYV, for which the amyloid nucleation score was 1.2 ± 0.082.

Regarding IISVIVTVYR, the amyloid nucleation score entry was “inactive”.

In the case of IIVFLRLSPELCVMCVRR, the amyloid nucleation score entry is “inactive”.

Take IIVMDCNGKLNGINHWVRVD: the amyloid nucleation score entry was “inactive”.

Take IKCIPFCDVGWSLTVLRYVT: the amyloid nucleation score entry is “inactive”.

Substance IKSCGVNNIAFLQVCHRWCS gave an amyloid nucleation score of 1.6 ± 0.082.

As to IKSHVAIDSVPER, the amyloid nucleation score result is “inactive”.

Consider IKWVCTEVRSGCLSVDCVLV, for which the amyloid nucleation score result was “inactive”.

For ILAVAPVVPGVVLGRNCRAR, the amyloid nucleation score result is “inactive”.

ILCVFVYRSRAESYEL: the amyloid nucleation score was 0.446 ± 0.23.

On to ILFKLVKWSAMSFLRCRLFS, for which the amyloid nucleation score is -0.797 ± 1.4.

In the case of ILFLSLRSYSLNGFSDIMYY, the amyloid nucleation score result is “inactive”.

In the case of ILIDSGSTLFSIIFQGLLLI, the amyloid nucleation score result is “inactive”.

ILIGWMILWAICLPKLVDDG: the amyloid nucleation score entry was “inactive”.

ILIYVQML yielded an amyloid nucleation score of 0.521 ± 0.22.

In the case of ILKMFTSGYCRVLWDLVVMV, the amyloid nucleation score entry is “inactive”.

ILMRTGFILCATST: the amyloid nucleation score result is “inactive”.

ILPGRHCGGASMHTQTCQ: the amyloid nucleation score entry is “inactive”.

On to ILQCGS, for which the amyloid nucleation score result is “inactive”.

For ILSVYDFNWFWKAKRDLYIS, the amyloid nucleation score result was “inactive”.

Take ILTYINEMSHLPWV: the amyloid nucleation score entry is “inactive”.

In the case of ILVFILYHCCIIHLGLNLAK, the amyloid nucleation score result was “inactive”.

ILVKIRNRCLEVE: the amyloid nucleation score was -0.32 ± 1.1.

On to ILVTLMVYIPHEYISVINLL, for which the amyloid nucleation score entry was “inactive”.

As to ILVWNLYLT, the amyloid nucleation score is 2.54 ± 0.053.

For the substance ILYVLCIFLCGAAIFSLTVL, the amyloid nucleation score result was “inactive”.

IMEEFVTIFDYLQMAMFTRR: the amyloid nucleation score entry is “inactive”.

For the substance IMFSVRRLKSILSRVAWYNT, the amyloid nucleation score result is “inactive”.

Consider IMGYGWDCTSDGLCVTCFYS, for which the amyloid nucleation score entry was “inactive”.

Regarding IMHIYYTYSIPLCDRRGRSY, the amyloid nucleation score was determined as 0.856 ± 0.26.

For the substance IMSNTLIHYLHRMLSSALCY, the amyloid nucleation score entry is “inactive”.

IMVKVW: the amyloid nucleation score result was “inactive”.

In the case of INHFLFYANNRYRRHILVGC, the amyloid nucleation score entry is “inactive”.

In the case of INICLLLKQRHEWMCCKNCM, the amyloid nucleation score was found to be 2.85 ± 0.074.

INLFICMCEKGYPHDSWVCC came in with an amyloid nucleation score of 2.58 ± 0.083.

On to INNTAPPQTYPR, for which the amyloid nucleation score entry was “inactive”.

On to INRVHLYRLLKW, for which the amyloid nucleation score entry was “inactive”.

In the case of INSEWIQSSAMFHPIMGRFR, the amyloid nucleation score is -0.188 ± 1.5.

In the case of INWGWLPCTRTSTIGSRGRS, the amyloid nucleation score entry was “inactive”.

With IPRYVWNVPRWYVYQFVCGA, the amyloid nucleation score came to 0.27 ± 0.54.

Turning to IPTSLCGGAQLGRTRVLFLW, the amyloid nucleation score result was “inactive”.

For IQCYNLSLPAGGEKLVRKRV, the amyloid nucleation score result is “inactive”.

Turning to IQLICEAIAGFLYNVIFVVL, the amyloid nucleation score entry was “inactive”.

As for IQTSNTHVVLVFFGRILRIC, the amyloid nucleation score result is “inactive”.

Turning to IQWFRQCSFRCSNHYSSAFK, the amyloid nucleation score stood at 1.44 ± 0.14.

For IRAEGQKIYDLPSFCVLIPR, the amyloid nucleation score result was “inactive”.

Consider IRCMRGTTRHVSGLKRVERN, for which the amyloid nucleation score result was “inactive”.

In the case of IRESFINGVYMVVSEFKCFT, the amyloid nucleation score result was “inactive”.

Take IRFAAMFFALLLRRDESSYE: the amyloid nucleation score result is “inactive”.

As for IRFYQKCVLSACVTSTRIMV, the amyloid nucleation score result was “inactive”.

Consider IRIKVRLHVSIYFNIFR, for which the amyloid nucleation score result is “inactive”.

Regarding IRPSLLMSLQNNDMMADLEV, the amyloid nucleation score was -0.538 ± 0.55.

For IRRLQINRAKHAILLLHYNW, the amyloid nucleation score entry is “inactive”.

For IRRWPWYIMCYVLLQSFLSL, the amyloid nucleation score result is “inactive”.

On to IRSDG, for which the amyloid nucleation score entry was “inactive”.

As to IRSIEPYPMHTTSW, the amyloid nucleation score was -0.428 ± 1.1.

On to IRSLLLILVRSAVPSALSVN, for which the amyloid nucleation score result was “inactive”.

As for IRSTGLINFQYWKMKTFLII, the amyloid nucleation score result is “inactive”.

As to IRSVL, the amyloid nucleation score entry is “inactive”.

Consider IRSVVIRVSFYFTWF, for which the amyloid nucleation score entry is “inactive”.

For IRTNYRRGKEAGVSGADSCS, the amyloid nucleation score entry was “inactive”.

Turning to IRTQYQEREASILYM, the amyloid nucleation score result is “inactive”.

Regarding IRVLVCIFWKTCPPNYVCRI, the amyloid nucleation score entry was “inactive”.

In turn, IRYALTINYSNTVL displayed an amyloid nucleation score of 0.457 ± 0.24.

Consider ISCLDGCFS, for which the amyloid nucleation score entry was “inactive”.

ISESKLMLTRWDGVFVTIWD: the amyloid nucleation score entry was “inactive”.

With ISFYKGYLKFNL, the amyloid nucleation score result is “inactive”.

Take ISGLSNMAYFLVNAWKLM: the amyloid nucleation score entry is “inactive”.

ISIFRRTGFAWFWENV: the amyloid nucleation score result is “inactive”.

Regarding ISIFSIRNMVYNLQVRLVLE, the amyloid nucleation score entry was “inactive”.

Take ISILEVKMWLLWTELERTIT: the amyloid nucleation score entry was “inactive”.

For the substance ISKAVSWCASCRSTQV, the amyloid nucleation score entry is “inactive”.

In the case of ISNLRSVVLWNSRLQRNRGW, the amyloid nucleation score result is “inactive”.

With ISRAVRILVVFDEVWMCSDG, the amyloid nucleation score entry was “inactive”.

As to ISRGALYLGMTATMRVQSGF, the amyloid nucleation score entry was “inactive”.

ISRSVIIDSQRGLCCQTWDW: the amyloid nucleation score entry was “inactive”.

With ISSIYREYLLKHGMFRKRRK, the amyloid nucleation score entry was “inactive”.

ISTKDTLM: the amyloid nucleation score entry is “inactive”.

ISVFIRTCMWKFVVVPRGYW: the amyloid nucleation score entry was “inactive”.

Turning to ISVVGILLGLSSFPVYSVSW, the amyloid nucleation score entry is “inactive”.

With ISYSAMVNCPDEIWVRYSSW, the amyloid nucleation score entry is “inactive”.

For ITALDWY, the amyloid nucleation score entry was “inactive”.

ITAVVVSDMYH: the amyloid nucleation score entry was “inactive”.

With ITGPTSVYE, the amyloid nucleation score result is “inactive”.

As to ITRTYNYLYTCINTFRQPSV, the amyloid nucleation score was 0.045 ± 0.45.

For the substance ITRWHGSLHSDYGIGICFSI, the amyloid nucleation score entry is “inactive”.

Take ITRWLIVLAVMYYSILSLSV: the amyloid nucleation score entry is “inactive”.

Regarding IVANGCRWQVRVPWGLTSKW, the amyloid nucleation score result is “inactive”.
